Data as given in patent US20220017611A1 (INSERM INSTITUTE NATIONAL DE LA SANT ET DE LA RECHERCHE M …, published 2022).
Where a chain is given by its changes, count along the chain named. Names and notes keep the numbering of the source.

T1: His-SUMO-Tau peptide Tau[273-318] (human, UniProt O02828 235-280 (Capra hircus entry), not fully specified)
T1 construct: SUMO domain fused at its C-terminus to the Tau peptide [273-318]; also called fused peptide; not shown: The N-terminal HisTag, the SUMO3 domain and any linker from vector pETNKI-HisSUMO3-LIC
T1 peptide: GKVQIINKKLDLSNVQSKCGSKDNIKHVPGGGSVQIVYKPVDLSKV

B1: VHH Z70 (VHH)
VHH: EVQLQASGGVFVQSGGSLRLSCAASGATSTFDGMGWFRQAPGKEREFVSAISYEQGSYTYYADSVKGRFTISRDNSKNMVYLQMNSLRAEDTATYYCAPAYEGDLYAFDSYGGQGTQVTVSS
notes: E4-1 with G12V, P16S, T81M and W114G; It may be the form actually produced from pHEN2; also called single domain antibody Z70; optimized VHH Z70
B2: VHH Mut1 (VHH)
VHH: B1 VHH with G113E
notes: Variant of Z70; also called VH Mut1
B3: VHH Mut9 (VHH)
VHH: B1 VHH with P99S, G113E
notes: Variant of Z70; also called VH Mut9
B4: VHH Mut3 (VHH)
VHH: B1 VHH with R45K
notes: Variant of Z70; also called VH Mut3
B5: VHH Mut14 (VHH)
VHH: B1 VHH with T30I, E54G, G113E
notes: Variant of Z70; also called VH Mut14
B6: VHH Mut20 (VHH)
VHH: B1 VHH with R45K, G113E
notes: Variant of Z70; also called VH Mut20
B7: VHH Mut12 (VHH)
VHH: AEVQLQASGGVFVQSGGSLRLCCAASGATSTFDGMGWFRQAPGKEREFVSAISYEQGSYTYYADSVKGRFTISRDNSKNMVYLQMNSLRAEDTATYYCAPAYEGDLYAFDSYGEQGTQVTVSS
notes: Variant of Z70; also called VH Mut12
B8: VHH Mut15 (VHH)
VHH: B1 VHH with R88G, P99S, G112E
notes: Variant of Z70; also called VH Mut15
B9: VHH Mut5 (VHH)
VHH: B1 VHH with T94S
notes: Variant of Z70; also called VH Mut5
B10: VHH E4-1 (VHH)
VHH: B1 VHH with V10G, S14P, M79T, G112W
notes: Selected from the synthetic Nali-H1 phage library; also called lead VHH E4-1

Biological target: T2, recombinant full-length Tau protein, longest isoform (Tau 2N4R) (human, UniProt P10636-8 1-441, biotinylated with NHS-biotin for SPR; 15N-labelled for NMR)
T2 construct: range 1-441; Expressed in E. coli from pET15b-Tau; also called biotinylated-Tau; 15N-Tau
Assay: SPR (Biacore T200), single-cycle kinetics, biotinylated Tau on streptavidin chip, VHH injected 0.125-2 µM
Experimental: (§1) Affinity measurements were performed on a BIAcore T200 optical biosensor instrument (GE Healthcare). Recombinant Tau proteins were biotinylated with 5 molar excess of NHS-biotin conjugates (Thermofisher) during 4 hours at 4° C. Capture of biotinylated Tau was performed on a streptavidin SA sensorchip in HBS-EP+ buffer (GE Healthcare). One flow cell was used as a reference to evaluate nonspecific binding and provide background correction. Biotinylated-Tau was injected at a flow-rate of 30 μL/min, until the total amount of captured Tau reached 500 resonance units (RUs). VHHs were injected sequentially with increasing concentrations ranging between 0.125 and 2 μM in a single cycle, with regeneration (3 successive washes of 1M NaCl) between each VHH. Single-Cycle Kinetics (SCK) analysis⁵² was performed to determine association kon and dissociation Koff rate constants by curve fitting of the sensorgrams using the 1:1 Langmuir model of interaction of the BIAevaluation sotware 2.0 (GE Healthcare). Dissociation equilibrium constants (Kd) was calculated as kon/Koff.

T2 sequence (P10636 other isoform, or with tags, fused parts or gaps limits assumed): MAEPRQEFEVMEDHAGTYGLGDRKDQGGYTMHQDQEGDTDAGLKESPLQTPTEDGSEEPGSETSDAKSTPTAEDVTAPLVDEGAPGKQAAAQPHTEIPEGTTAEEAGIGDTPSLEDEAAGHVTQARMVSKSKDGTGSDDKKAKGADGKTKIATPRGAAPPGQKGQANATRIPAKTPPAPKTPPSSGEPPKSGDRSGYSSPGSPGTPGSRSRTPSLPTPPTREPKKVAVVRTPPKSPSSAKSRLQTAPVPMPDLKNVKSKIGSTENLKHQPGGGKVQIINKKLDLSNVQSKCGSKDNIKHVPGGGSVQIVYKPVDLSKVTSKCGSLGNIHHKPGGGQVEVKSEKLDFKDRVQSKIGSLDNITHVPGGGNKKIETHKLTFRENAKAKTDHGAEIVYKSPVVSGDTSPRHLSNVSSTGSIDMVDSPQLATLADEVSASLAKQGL

In order of rising Kd:
1. B2  22.6 nM
2. B6  41.8 nM
3. B3  51 nM
4. B7  61.1 nM
5. B5  74.2 nM
6. B4  80.5 nM
7. B9  80.8 nM
8. B8  95.6 nM
9. B1  147 nM

In order of falling koff:
1. B1  0.00267 s⁻¹
2. B2  0.00242 s⁻¹
3. B4  0.0021 s⁻¹
4. B7  0.00207 s⁻¹
5. B3  0.00205 s⁻¹
6. B8  0.00203 s⁻¹
7. B5  0.0014 s⁻¹
8. B6  0.00089 s⁻¹
9. B9  0.000883 s⁻¹

In order of rising kon:
1. B9  10900 M⁻¹ s⁻¹
2. B1  18100 M⁻¹ s⁻¹
3. B5  18800 M⁻¹ s⁻¹
4. B6  21200 M⁻¹ s⁻¹
5. B8  21300 M⁻¹ s⁻¹
6. B4  26000 M⁻¹ s⁻¹
7. B7  33900 M⁻¹ s⁻¹
8. B3  40100 M⁻¹ s⁻¹
9. B2  107000 M⁻¹ s⁻¹

Biological target: T2, recombinant full-length Tau protein, …
Assay: as above
Remark: another data set of the same source
Experimental: as §1, with “VHH. On the other hand, VHH Z70 was immobilized on a CMS chip in HBS-EP+ buffer (GE Healthcare) and increasing concentrations, ranging between 0.125 and 2 μM of the SUMO-Tau peptide, were successively injected.” for “VHH.”, “(KD)” for “(Kd)”

In order of falling Kd:
1. B10  345 nM
2. B1  147 nM

In order of rising koff:
1. B10  0.0017 s⁻¹
2. B1  0.0026 s⁻¹

In order of rising kon:
1. B10  4980 M⁻¹ s⁻¹
2. B1  18100 M⁻¹ s⁻¹

Biological target: T2, recombinant full-length Tau protein, …
Assay: cell-based or functional assay

With B10 the “Thioflavin T fluorescence signal (% of positive control), 1:1 Tau:VHH E4-1 molar ratio” value was 58.3%.

In the case of B10, the “maximal Thioflavin T fluorescence signal (% of positive control), molar ratio 1:0.25 Tau:VHH E4-1” value is reported as 86.9%.

For B10, the “time to gain 50% of maximal Thioflavin T signal, 1:1 Tau:VHH E4-1 molar ratio” value was > 12.8 h.

With B10 the “time to gain 50% of maximal Thioflavin T signal, molar ratio 1:0.25 Tau:VHH E4-1 (2.5 h for the positive control)” value was ~3.8 h.

B1 was tested, and the “maximal Thioflavin T fluorescence signal (% of positive control), 1:1 Tau:VHH Z70 molar ratio” value was 4.1%.

Biological target: T2, recombinant full-length Tau protein, …
Assay: SPR, biotinylated Tau on streptavidin chip (the best mutant is Mut1 by Table 4)
Experimental: as §1
A mutant library of VHH Z70 has been screened for mutants displaying a stronger affinity in yeast two-hybrid system as described above. 8 mutants were selected and their affinity have been further characterized using SPR experiments.

With B2 the “fold improvement of KD against VHH Z70” value was > 6 fold.

Biological target: T1, His-SUMO-Tau peptide Tau[273-318]
Assay: SPR, single-cycle kinetics, VHH Z70 immobilized on the chip, SUMO-Tau[273-318] injected 0.125-2 µM
Experimental: as §1, with “VHH. On the other hand, VHH Z70 was immobilized on a CMS chip in HBS-EP+ buffer (GE Healthcare) and increasing concentrations, ranging between 0.125 and 2 μM of the SUMO-Tau peptide, were successively injected.” for “VHH.”, “(KD)” for “(Kd)”, “[…]. […]” for “kon/Koff.”

Work on B1 yielded a Kd of 85 nM.
